Test results as given in US20160272683A1 (Novo Nordisk, published 2016).
Numbered stars: 1 amine (or outer) side, 2 acyl side, 3 side chain; on linkers, the order of the positions; unused ones are H or OH. Square brackets hold non-standard residues; d marks the D form. Side chains are listed from the residue outwards. * marks the point of attachment. C20 diacid = O=C(O)CCCCCCCCCCCCCCCCCCC(=O)*; γGlu = O=C(O)[C@H](CCC(=O)[*:2])N[*:1]

T1: human amylin receptor (amylin 3(a) receptor: human calcitonin receptor with RAMP-3) (human, UniProt P30988 25-474; O60896 24-148, limits assumed)
T1 construct: whole, on cells; Assay V: membranes of the Amylin 3(a)/CRE-luc BHK cells on SPA beads; also called hAmylin-R
T1 sequence (looked up) 1: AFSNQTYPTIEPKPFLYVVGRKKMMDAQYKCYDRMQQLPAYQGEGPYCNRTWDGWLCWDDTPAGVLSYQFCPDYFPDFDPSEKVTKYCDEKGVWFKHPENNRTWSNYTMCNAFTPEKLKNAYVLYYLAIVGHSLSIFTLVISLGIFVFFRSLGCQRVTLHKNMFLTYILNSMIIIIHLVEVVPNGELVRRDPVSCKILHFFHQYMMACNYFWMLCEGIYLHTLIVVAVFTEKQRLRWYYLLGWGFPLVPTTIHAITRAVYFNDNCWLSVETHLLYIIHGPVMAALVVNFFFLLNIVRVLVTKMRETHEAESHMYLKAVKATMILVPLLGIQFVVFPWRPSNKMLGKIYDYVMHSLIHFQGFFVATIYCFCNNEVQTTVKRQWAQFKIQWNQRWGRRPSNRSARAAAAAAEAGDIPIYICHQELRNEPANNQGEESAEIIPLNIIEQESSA
T1 sequence (looked up) 2: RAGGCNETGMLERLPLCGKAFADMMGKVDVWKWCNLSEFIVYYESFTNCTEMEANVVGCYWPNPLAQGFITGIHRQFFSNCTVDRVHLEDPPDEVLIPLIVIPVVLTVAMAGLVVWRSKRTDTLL

T2: human calcitonin receptor (human, UniProt P30988 25-474)
T2 construct: whole, on cells; Assay VII: membranes on SPA beads; also called hCT-R; hCTR
T2 sequence (looked up): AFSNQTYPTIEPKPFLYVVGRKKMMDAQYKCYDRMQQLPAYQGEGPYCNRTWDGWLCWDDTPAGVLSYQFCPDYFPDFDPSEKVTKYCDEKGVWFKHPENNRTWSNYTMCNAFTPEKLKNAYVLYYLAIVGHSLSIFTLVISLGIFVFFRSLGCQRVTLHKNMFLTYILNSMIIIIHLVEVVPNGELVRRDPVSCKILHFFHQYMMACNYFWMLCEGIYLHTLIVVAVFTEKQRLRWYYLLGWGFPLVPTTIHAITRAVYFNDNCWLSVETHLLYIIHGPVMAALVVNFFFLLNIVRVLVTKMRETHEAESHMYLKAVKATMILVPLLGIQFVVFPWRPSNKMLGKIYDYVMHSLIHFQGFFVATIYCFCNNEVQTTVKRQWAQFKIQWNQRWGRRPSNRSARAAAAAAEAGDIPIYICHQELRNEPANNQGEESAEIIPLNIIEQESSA


Legend:
[1] = biological target: T1, human amylin receptor (amylin 3(a) …); assay: SPA competition vs 125I-rat amylin, membranes with human CTR + RAMP-3 (Assay V)
Experimental: The binding assay was performed using scintillation proximity assay (SPA) beads (RPNQ0001) from PerkinElmer and cell membranes from the Amylin 3(a)/CRE-luc cells (as described in Assay (II)) were used. Membranes were prepared in the following way; the cells were rinsed with PBS and incubated with Versene for approximately 5 min before harvesting. The cells were flushed with PBS and the cell-suspension was centrifuged for 5 min at 1000 rpm. […] The resulting pellet was resuspended in buffer 2 and protein concentration was tested (BCA protein Assay, Pierce). The homogenate was kept cold during the whole procedure. The membranes were kept at −80° C. until use. The assay was performed in a 384 well Optiplate (PerkinElmer) in a total volume of 40 ul. Membranes were mixed with SPA beads. Final concentration of membranes 35 ng/μL final and SPA beads was 0.05 mg/well. Test-compounds were dissolved in DMSO and further diluted in assay buffer (50 mM Hepes, pH 7.4, 1 mM CaCl2, 5 mM MgCl2, 0.1% OA and 0.02% Tween20). […] Samples were analyzed on TopCounter™ (Packard). The IC₅₀ was calculated using (one site binding competition analysis) GraphPad Prism5 as a measure of receptor affinity.

[2] = biological target: T2, human calcitonin receptor; assay: SPA competition vs 125I-calcitonin, membranes with human CTR (Assay VII)
Experimental: The binding assay was performed using scintillation proximity assay (SPA) beads (RPNQ0001) from PerkinElmer® and cell membranes prepared from a BHK tk'ts 13 cell line was stably transfected with the human calcitonin receptor and a CRE-responsive luciferase reporter gene. Membranes were prepared in the following way; the cells were rinsed with PBS and incubated with Versene for approximately 5 min before harvesting. The cells were flushed with PBS and the cell-suspension was centrifuged for 5 min at 1000 rpm.
EDTA (pH 7.4, buffer 2). The resulting pellet was resuspended in buffer 2 and protein concentration was tested (BCA protein Assay, Pierce). The homogenate was kept cold during the whole procedure. The membranes were kept at −80° C. until use. Assay was performed in a 384 well Optiplate (PerkinElmer®) in a total volume of 40 ul. Membranes were mixed with SPA beads. Final concentration of membranes 35 ng/μL final and Final concentration of SPA beads was 0.05 mg/well. Test-compounds were dissolved in DMSO and further diluted in assay buffer (50 mM Hepes, pH 7.4, 1 mM CaCl2, 5 mM MgCl2, 0.1% OA and 0.02% Tween20). […] Samples were analyzed on TopCounter™ (Packard). The IC₅₀ was calculated using (one site binding competition analysis) GraphPad Prism5 as a measure of receptor affinity.

Binder	IC50 [1] [nM]	IC50 [2] [nM]
{C20 diacid-γGlu}-ASELSTAALGHLSAELHELATLPRTETGSGSP-NH2 (mimylin derivative; also called Ex. #72; 72) [[N-terminal(C20 diacid-gGlu), des1, 12H, 30S, 31G]mimylin]	0.565	0.097
Ac-ASK([γGlu-C20 diacid])LSTAALGRLSAELHELATLPRTETGSGSP-NH2 (mimylin derivative; des1 = residue 1 deleted; also called Ex. #68; 68) [[N-terminal(acetyl), des1, 4K(C20 diacid-gGlu), 30S, 31G]mimylin]	0.05	0.01
Ac-ASELSTAALGRLSAK([γGlu-C20 diacid])LHELATLPRTETGSGSP-NH2 (mimylin derivative; des1 = residue 1 deleted; also called Ex. #69; 69) [[N-terminal(acetyl), des1, 16K(C20 diacid-gGlu), 30S, 31G]mimylin]	0.074	0.046
{C20 diacid-γGlu}-ASELSTAALGRLSAELHELATYPRTETGSGAP-NH2 (SMILES CC(C)C[C@H](NC(=O)[C@H](C)NC(=O)[C@H](C)NC(=O)[C@@H](NC(=O)[C@H](CO)NC(=O)[C@H](CC(C)C)NC(=O)[C@H](CCC(=O)O)NC(=O)[C@H](CO)NC(=O)[C@H](C)NC(=O)CC[C@H](NC(=O)CCCCCCCCCCCCCCCCCCC(=O)O)C(=O)O)[C@@H](C)O)C(=O)NCC(=O)N[C@@H](CCCNC(=N)N)C(=O)N[C@@H](CC(C)C)C(=O)N[C@@H](CO)C(=O)N[C@@H](C)C(=O)N[C@@H](CCC(=O)O)C(=O)N[C@@H](CC(C)C)C(=O)N[C@@H](Cc1c[nH]cn1)C(=O)N[C@@H](CCC(=O)O)C(=O)N[C@@H](CC(C)C)C(=O)N[C@@H](C)C(=O)N[C@H](C(=O)N[C@@H](Cc1ccc(O)cc1)C(=O)N1CCC[C@H]1C(=O)N[C@@H](CCCNC(=N)N)C(=O)N[C@H](C(=O)N[C@@H](CCC(=O)O)C(=O)N[C@H](C(=O)NCC(=O)N[C@@H](CO)C(=O)NCC(=O)N[C@@H](C)C(=O)N1CCC[C@H]1C(N)=O)[C@@H](C)O)[C@@H](C)O)[C@@H](C)O, mimylin derivative; des1 = residue 1 deleted; also called Ex. #81; 81) [[N-terminal(C20 diacid-gGlu), des1, 23Y, 30S, 31G, 32A]mimylin]	0.141	0.102
Ac-ASELSTAALGRLSAELHK([γGlu-C20 diacid])LATLPRTETGSGSP-NH2 (mimylin derivative; des1 = residue 1 deleted; also called Ex. #70; 70) [[N-terminal(acetyl), des1, 19K(C20 diacid-gGlu), 30S, 31G]mimylin]	0.206	0.077
{C20 diacid-γGlu}-ASELSTAALGRLSAELHELATYPRTETGSGSP-NH2 (SMILES CC(C)C[C@H](NC(=O)[C@H](C)NC(=O)[C@H](C)NC(=O)[C@@H](NC(=O)[C@H](CO)NC(=O)[C@H](CC(C)C)NC(=O)[C@H](CCC(=O)O)NC(=O)[C@H](CO)NC(=O)[C@H](C)NC(=O)CC[C@H](NC(=O)CCCCCCCCCCCCCCCCCCC(=O)O)C(=O)O)[C@@H](C)O)C(=O)NCC(=O)N[C@@H](CCCNC(=N)N)C(=O)N[C@@H](CC(C)C)C(=O)N[C@@H](CO)C(=O)N[C@@H](C)C(=O)N[C@@H](CCC(=O)O)C(=O)N[C@@H](CC(C)C)C(=O)N[C@@H](Cc1c[nH]cn1)C(=O)N[C@@H](CCC(=O)O)C(=O)N[C@@H](CC(C)C)C(=O)N[C@@H](C)C(=O)N[C@H](C(=O)N[C@@H](Cc1ccc(O)cc1)C(=O)N1CCC[C@H]1C(=O)N[C@@H](CCCNC(=N)N)C(=O)N[C@H](C(=O)N[C@@H](CCC(=O)O)C(=O)N[C@H](C(=O)NCC(=O)N[C@@H](CO)C(=O)NCC(=O)N[C@@H](CO)C(=O)N1CCC[C@H]1C(N)=O)[C@@H](C)O)[C@@H](C)O)[C@@H](C)O, mimylin derivative; des1 = residue 1 deleted; also called Ex. #56; 56) [[N-terminal(C20 diacid-gGlu), des1, 23Y, 30S, 31G]mimylin]	0.394	0.07
{C20 diacid-γGlu}-ASELSTAALGRLS[dE]ELHELATLPRTETGSGSP-NH2 (SMILES CC(C)C[C@H](NC(=O)[C@H](C)NC(=O)[C@H](C)NC(=O)[C@@H](NC(=O)[C@H](CO)NC(=O)[C@H](CC(C)C)NC(=O)[C@H](CCC(=O)O)NC(=O)[C@H](CO)NC(=O)[C@H](C)NC(=O)CC[C@H](NC(=O)CCCCCCCCCCCCCCCCCCC(=O)O)C(=O)O)[C@@H](C)O)C(=O)NCC(=O)N[C@@H](CCCNC(=N)N)C(=O)N[C@@H](CC(C)C)C(=O)N[C@@H](CO)C(=O)N[C@H](CCC(=O)O)C(=O)N[C@@H](CCC(=O)O)C(=O)N[C@@H](CC(C)C)C(=O)N[C@@H](Cc1c[nH]cn1)C(=O)N[C@@H](CCC(=O)O)C(=O)N[C@@H](CC(C)C)C(=O)N[C@@H](C)C(=O)N[C@H](C(=O)N[C@@H](CC(C)C)C(=O)N1CCC[C@H]1C(=O)N[C@@H](CCCNC(=N)N)C(=O)N[C@H](C(=O)N[C@@H](CCC(=O)O)C(=O)N[C@H](C(=O)NCC(=O)N[C@@H](CO)C(=O)NCC(=O)N[C@@H](CO)C(=O)N1CCC[C@H]1C(N)=O)[C@@H](C)O)[C@@H](C)O)[C@@H](C)O, mimylin derivative; des1 = residue 1 deleted; lower case e = D-form of Glu; also called Ex. #67; 67) [[N-terminal(C20 diacid-gGlu), des1, 15e, 30S, 31G]mimylin]	0.029	0.022
{C20 diacid-γGlu}-ASELSTAALGRLSAELHELATLPRTETGSGSY-NH2 (SMILES CC(C)C[C@H](NC(=O)[C@H](C)NC(=O)[C@H](C)NC(=O)[C@@H](NC(=O)[C@H](CO)NC(=O)[C@H](CC(C)C)NC(=O)[C@H](CCC(=O)O)NC(=O)[C@H](CO)NC(=O)[C@H](C)NC(=O)CC[C@H](NC(=O)CCCCCCCCCCCCCCCCCCC(=O)O)C(=O)O)[C@@H](C)O)C(=O)NCC(=O)N[C@@H](CCCNC(=N)N)C(=O)N[C@@H](CC(C)C)C(=O)N[C@@H](CO)C(=O)N[C@@H](C)C(=O)N[C@@H](CCC(=O)O)C(=O)N[C@@H](CC(C)C)C(=O)N[C@@H](Cc1c[nH]cn1)C(=O)N[C@@H](CCC(=O)O)C(=O)N[C@@H](CC(C)C)C(=O)N[C@@H](C)C(=O)N[C@H](C(=O)N[C@@H](CC(C)C)C(=O)N1CCC[C@H]1C(=O)N[C@@H](CCCNC(=N)N)C(=O)N[C@H](C(=O)N[C@@H](CCC(=O)O)C(=O)N[C@H](C(=O)NCC(=O)N[C@@H](CO)C(=O)NCC(=O)N[C@@H](CO)C(=O)N[C@@H](Cc1ccc(O)cc1)C(N)=O)[C@@H](C)O)[C@@H](C)O)[C@@H](C)O, mimylin derivative; des1 = residue 1 deleted; also called Ex. #59; 59) [[N-terminal(C20 diacid-gGlu), des1, 30S, 31G, 33Y]mimylin]	0.243	0.113
{C20 diacid-γGlu}-ASELSTAALGRLSAELHELATLPRTETGSGSH-NH2 (SMILES CC(C)C[C@H](NC(=O)[C@H](C)NC(=O)[C@H](C)NC(=O)[C@@H](NC(=O)[C@H](CO)NC(=O)[C@H](CC(C)C)NC(=O)[C@H](CCC(=O)O)NC(=O)[C@H](CO)NC(=O)[C@H](C)NC(=O)CC[C@H](NC(=O)CCCCCCCCCCCCCCCCCCC(=O)O)C(=O)O)[C@@H](C)O)C(=O)NCC(=O)N[C@@H](CCCNC(=N)N)C(=O)N[C@@H](CC(C)C)C(=O)N[C@@H](CO)C(=O)N[C@@H](C)C(=O)N[C@@H](CCC(=O)O)C(=O)N[C@@H](CC(C)C)C(=O)N[C@@H](Cc1c[nH]cn1)C(=O)N[C@@H](CCC(=O)O)C(=O)N[C@@H](CC(C)C)C(=O)N[C@@H](C)C(=O)N[C@H](C(=O)N[C@@H](CC(C)C)C(=O)N1CCC[C@H]1C(=O)N[C@@H](CCCNC(=N)N)C(=O)N[C@H](C(=O)N[C@@H](CCC(=O)O)C(=O)N[C@H](C(=O)NCC(=O)N[C@@H](CO)C(=O)NCC(=O)N[C@@H](CO)C(=O)N[C@@H](Cc1c[nH]cn1)C(N)=O)[C@@H](C)O)[C@@H](C)O)[C@@H](C)O, mimylin derivative; des1 = residue 1 deleted; also called Ex. #60; 60) [[N-terminal(C20 diacid-gGlu), des1, 30S, 31G, 33H]mimylin]	0.057	0.034
